Experimental findings from publication PMC2954813, “Of Bits and Bugs — On the Use of Bioinformatics and a Bacterial Crystal Structure to Solve a Eukaryotic Repeat-Protein Structure” (PLoS ONE, 2010) are described below.

In series [1] the target is T1, Pur-alpha 56-287 (C272S) (human, UniProt Q00577 56-287, C272S).
T1 sequence: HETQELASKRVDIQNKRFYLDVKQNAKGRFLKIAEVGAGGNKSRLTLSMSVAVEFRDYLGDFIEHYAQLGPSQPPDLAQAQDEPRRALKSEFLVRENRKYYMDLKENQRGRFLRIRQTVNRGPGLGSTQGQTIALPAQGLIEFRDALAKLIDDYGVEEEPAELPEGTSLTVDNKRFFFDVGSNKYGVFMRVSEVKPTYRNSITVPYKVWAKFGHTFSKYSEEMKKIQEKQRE
Nature of the series: filter binding; protein 0-10 uM; 2.5 mM MgCl2; 100 mM NaCl, 10 mM HEPES pH 8.0, 2.5 mM MgCl2, 1 mM DTT; 0.5 nM labeled oligo, 0-10 uM protein, 20 min, room temperature. The conditions noted are these: protein: recombinant; tags: GST removed by protease (tag cleaved); chain copies: 2; label: 5'-32P; single strand.

Series [2] has as its target T1, Pur-alpha 56-287 (C272S). Nature of the series: filter binding; replicates 207, 258; 2.5 mM MgCl2; 100 mM NaCl, 10 mM HEPES pH 8.0, 2.5 mM MgCl2, 1 mM DTT; 0.5 nM labeled oligo, 0-10 uM protein, 20 min, room temperature. The conditions noted are these: protein: recombinant; tags: GST removed by protease (tag cleaved); chain copies: 2; label: 5'-32P; single strand.
Series [3] addresses T1, Pur-alpha 56-287 (C272S). Put plainly: filter binding; replicates 491, 438, 306; 2.5 mM MgCl2; 100 mM NaCl, 10 mM HEPES pH 8.0, 2.5 mM MgCl2, 1 mM DTT; 0.5 nM labeled oligo, 0-10 uM protein, 20 min, room temperature. The settings on record: protein: recombinant; tags: GST removed by protease (tag cleaved); chain copies: 2; label: 5'-32P; single strand.
Series [4] concerns the molecule itself. Nature of the series: crystal structure; selenomethionine-substituted crystals grown at 4°C in 2.8 M sodium formate, protein 1.2 mg/mL, stoichiometric addition of the DNA oligomer hTel12 (not visible in the model); SAD, 1.9 Å.
Series [5] deals with the molecule itself. Put plainly: crystal structure; native crystals grown at 21°C, hanging drop, protein 2.2 mg/ml, 100 mM HEPES (pH 7.2), 20% PEG 3350; molecular replacement, 2.2 Å.

As usually defined, the Kd is a measure of binding affinity in units of concentration. By stoichiometry N is commonly meant the number of molecules, sites or subunits per partner or assembly.

Numbering of substitutions follows the chain as printed. In names and notes the source's numbering stands.

In the case of CCTCCGCCTCCG (ssDNA) [Control], the binding result with Pur-alpha 56-287 (C272S) [1] is “no binding”.
GGAGGGGGAGGC (ssDNA) [JCVupTAR]: in the series with Pur-alpha 56-287 (C272S) [2], the Kd was determined as 233 ± 36 nM.
For the molecule AGGGTTAGGGTT (ssDNA) [hTel12], the Kd in the series with Pur-alpha 56-287 (C272S) [3] stood at 411 ± 95 nM.

B1: selenomethionine-substituted B. burgdorferi Pur-α 8–105 (L17M, F27M, I64M) (domain or fragment)
chain: ERGEVYSEKMFTESERTYFMNVKENRKGDYFLNIVESKRSPSGDFERHSIFVYEENMNEFESNLLKAIAVIKQKVSTGSVGSSARHNKGYGEYGERSK
modifications: selenomethionine-substituted (methionines introduced at positions 17, 27 and 64; no other methionines in this fragment)
notes: Expressed from the pGEX6p1 vector (BamHI/XhoI); Only amino acids 8 to 84 are visible in the electron density; also called SeMet; selenomethionine-derivatized protein; source: E. coli BL21, purified (glutathione column, protease cleavage, Q column, heparin column, size-exclusion chromatography)
B1: the “stoichiometry N” value in series [4] is 2.

B2: B. burgdorferi Pur-α 8–105 (domain or fragment, Borrelia burgdorferi B31, UniProt O51076-2 8-105, looked up)
chain: B1 chain with M10L, M20F, M57I
notes: Pur-α (hypothetical protein BB0047) of Borrelia burgdorferi B31, 127-amino acid gene product, amino acids 8 to 105; Expressed from the pGEX6p1 vector (BamHI/XhoI); also called native protein; BB0047 fragment; source: E. coli BL21, purified (glutathione column, protease cleavage, Q column, heparin column, size-exclusion chromatography)
Regarding B2, the binding result in series [5] is given as “binds”.
